Earlier results, collected in PMC8476072.

Biological target: CheZ (Escherichia coli) (UniProt P0A9H9)
UniProt P0A9H9, sequence (P0A9H9 whole entry): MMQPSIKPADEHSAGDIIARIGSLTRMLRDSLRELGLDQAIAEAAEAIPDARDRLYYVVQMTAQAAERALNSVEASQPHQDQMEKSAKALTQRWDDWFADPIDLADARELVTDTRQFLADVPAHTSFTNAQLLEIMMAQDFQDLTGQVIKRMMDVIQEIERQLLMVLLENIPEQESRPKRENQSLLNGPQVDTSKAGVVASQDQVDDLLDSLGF

Kd: 8 µM
Substance: CheY (from UniProt P0AE67)
